Data reported in US9006178 (Novo Nordisk, dated 2015).
*1 amine or outer side, *2 acyl side, *3 side chain or, on linkers, in order; H or OH if unused. Where no end group is shown, it is not given here. Side-chain parts run from the residue outwards. [ ]: non-standard residue; d: D form. The star is where a group is joined. Dodecanoyl(12-OPh(4-COOH)) = O=C(O)c1ccc(OCCCCCCCCCCCC(=O)*)cc1; Decanoyl(10-(4-HOOC-PhO)) = O=C(O)c1ccc(OCCCCCCCCCC(=O)*)cc1; C18 diacid = O=C(O)CCCCCCCCCCCCCCCCC(=O)*; C16 diacid = O=C(O)CCCCCCCCCCCCCCC(=O)*; γGlu = O=C(O)[C@H](CCC(=O)[*:2])N[*:1]; Desaminohistidyl = O=C(CCc1c[nH]cn1)*; εLys = N[C@@H](CCCCN[*:1])C(=O)[*:2]; AEEA = NCCOCCOCC(=O)O; Aib = CC(C)(N)C(=O)O

Experiments:
human GLP-1 receptor [1] = molecular target: T1, human GLP-1 receptor (human, UniProt P43220 24-463); test: SPA displacement of [125I]-GLP-1(7-36)NH2 from human GLP-1 receptor membranes, low albumin (0.005% HSA)
T1 construct: whole, on cells; also called hGLP-1
Method: (§1) 25 ul (microliter) of test compounds are added to Optiplate. HSA ("high albumin" experiment containing 2% HSA), or buffer ("low albumin" experiment containing 0.005% HSA), was added (50 ul). 5-10 ug protein/sample was added (50 ul) corresponding to 0.1-0.2 mg protein/ml (to be preferably optimised for each membrane preparation). SPA-particles (Wheatgerm agglutinin SPA beads, Perkin Elmer, #RPNQ0001) were added in an amount of 0.5 mg/well (50 ul). […] The plates were sealed with PlateSealer and incubated for 120 minutes at 30° C. while shaking. The plates were centrifuged (1500 rpm, 10 min) and counted in Topcounter.

human GLP-1 receptor [2] = molecular target: T1, human GLP-1 receptor; test: SPA displacement of [125I]-GLP-1(7-36)NH2 from human GLP-1 receptor membranes; IC50 at 2.0% HSA divided by IC50 at 0.005% HSA
Method: as §1

## N^ε18-[(2S)-2-amino-6-[[2-[2-[2-[[(4S)-4-carboxy-4-(13-carboxytridecanoylamino)butanoyl]amino]ethoxy]ethoxy]acetyl]amino]hexanoyl], N^ε26-[(2S)-2-amino-6-[[2-[2-[2-[[(4S)-4-carboxy-4-(13-carboxytridecanoylamino)butanoyl]amino]ethoxy]ethoxy]acetyl]amino]hexanoyl]-[Lys^18,Glu^22,Gln^34] (SEQ ID NO: 11)-GLP-1-(7-37)-peptide
Human GLP-1 receptor [1]
  IC50: < 35 nM

## N^ε18-[(2S)-2-amino-6-[[(2S)-2-amino-6-[[(4S)-4-carboxy-4-[8-[10-(4-carboxyphenoxyl)decanoylamino]octanoylamino]butanoyl]amino]hexanoyl]amino]hexanoyl], N^ε26-[(2S)-2-amino-6-[[(2S)-2-amino-6-[[(4S)-4-carboxy-4-[8-[10-(4-carboxyphenoxyl)decanoylamino]octanoylamino]butanoyl]amino]hexanoyl]amino]hexanoyl]-[Aib^8,Lys^18,Glu^22,Gln^34] (SEQ ID NO: 9)-GLP-1-(7-37)-peptide
Human GLP-1 receptor [1]
  IC50: < 35 nM

## N^ε18-[(2S)-2-amino-6-[[(4S)-4-carboxy-4-(13-carboxytridecanoylamino)butanoyl]amino]hexanoyl], N^ε26-[(2S)-2-amino-6-[[(4S)-4-carboxy-4-(13-carboxytridecanoylamino)butanoyl]amino]hexanoyl]-[Lys^8,Glu^22,Gln^34] (SEQ ID NO: 11)-GLP-1-(7-37)-peptide
Human GLP-1 receptor [1]
  IC50: < 35 nM

## N^ε18-[(2S)-2-amino-6-[[(2S)-2-amino-6-[[(4S)-4-carboxy-4-[10-(4-carboxyphenoxyl)decanoylamino]butanoyl]amino]hexanoyl]amino]hexanoyl], N^ε26-[(2S)-2-amino-6-[[(2S)-2-amino-6-[[(4S)-4-carboxy-4-[10-(4-carboxyphenoxyl)decanoylamino]butanoyl]amino]hexanoyl]amino]hexanoyl]-[Aib^8,Lys^18,Glu^22,Gln^34] (SEQ ID NO: 9)-GLP-1-(7-37)-peptide
Human GLP-1 receptor [1]
  IC50: < 35 nM

B1: N^ε18-[2-[2-[2-[[(2S)-2-amino-6-[[2-[2-[2-[[(4S)-4-carboxy-4-[10-(4-carboxyphenoxyl)decanoylamino]butanoyl]amino]ethoxy]ethoxy]acetyl]amino]hexanoyl]amino]ethox … (peptide)
peptide: [Desaminohistidyl][Aib]EGTFTSDVSK([AEEA-εLys-AEEA-γGlu-Decanoyl(10-(4-HOOC-PhO))])YLEEQAAK([AEEA-εLys-AEEA-γGlu-Decanoyl(10-(4-HOOC-PhO))])EFIAWLVQGRG
notes: Double-acylated GLP-1 analogue; positions are counted with residue 1 of the entry as no
Human GLP-1 receptor [1]
  IC50: < 35 nM
Human GLP-1 receptor [2]
  ratio [(IC50/nM) high HSA]/[(IC50/nM) low HSA]: > 10

B2: N^ε18-[(2S)-2-amino-6-[[2-[2-[2-[[2-[2-[2-[[(4S)-4-carboxy-4-[12-(4-carboxyphenoxy)dodecanoylamino]butanoyl]amino]ethoxy]ethoxy]acetyl]amino]ethoxy]ethoxy]acety … (peptide)
peptide: H[Aib]EGTFTSDVSK([εLys-AEEA-AEEA-γGlu-Dodecanoyl(12-OPh(4-COOH))])YLEGQAAK([εLys-AEEA-AEEA-γGlu-Dodecanoyl(12-OPh(4-COOH))])EFIAWLVQGRG
notes: Double-acylated GLP-1 analogue; positions are counted with His as no
Human GLP-1 receptor [1]
  IC50: < 35 nM
Human GLP-1 receptor [2]
  ratio [(IC50/nM) high HSA]/[(IC50/nM) low HSA]: > 10

B3: N^ε18-[(2S)-2-amino-6-[[(2S)-2-amino-6-[[(4S)-4-carboxy-4-[12-(4-carboxyphenoxy)dodecanoylamino]butanoyl]amino]hexanoyl]amino]hexanoyl], … (peptide)
peptide: H[Aib]EGTFTSDVSK([εLys-εLys-γGlu-Dodecanoyl(12-OPh(4-COOH))])YLEGQAAK([εLys-εLys-γGlu-Dodecanoyl(12-OPh(4-COOH))])EFIAWLVQGRG
notes: as for B2
Human GLP-1 receptor [1]
  IC50: < 35 nM
Human GLP-1 receptor [2]
  ratio [(IC50/nM) high HSA]/[(IC50/nM) low HSA]: > 10

B4: N^ε18-[(2S)-2-amino-6-[[(2S)-2-amino-6-[[(4S)-4-carboxy-4-(17-carboxyheptadecanoylamino)butanoyl]amino]hexanoyl]amino]hexanoyl], … (peptide)
peptide: H[Aib]EGTFTSDVSK([εLys-εLys-γGlu-C18 diacid])YLEGQAAK([εLys-εLys-γGlu-C18 diacid])EFIAWLVQGRG
notes: as for B2
Human GLP-1 receptor [1]
  IC50: < 35 nM
Human GLP-1 receptor [2]
  ratio [(IC50/nM) high HSA]/[(IC50/nM) low HSA]: > 10

B5: N^ε18-[(2S)-2-amino-6-[[(2S)-2-amino-6-[[(4S)-4-carboxy-4-[10-(4-carboxyphenoxyl)decanoylamino]butanoyl]amino]hexanoyl]amino]hexanoyl], … (peptide)
peptide: H[Aib]EGTFTSDVSK([εLys-εLys-γGlu-Decanoyl(10-(4-HOOC-PhO))])YLEGQAAK([εLys-εLys-γGlu-Decanoyl(10-(4-HOOC-PhO))])EFIAWLVQGRG
notes: as for B2
Human GLP-1 receptor [1]
  IC50: < 35 nM
Human GLP-1 receptor [2]
  ratio [(IC50/nM) high HSA]/[(IC50/nM) low HSA]: > 10

## H[Aib]EGTFTSDVSK([εLys-εLys-γGlu-Decanoyl(10-(4-HOOC-PhO))])QLEEQAAK([εLys-εLys-γGlu-Decanoyl(10-(4-HOOC-PhO))])EFIAWLVQGRG
Human GLP-1 receptor [1]
  IC50: < 35 nM
Human GLP-1 receptor [2]
  ratio [(IC50/nM) high HSA]/[(IC50/nM) low HSA]: > 10

B6: N^ε18-[(2S)-2-amino-6-[[2-[2-[2-[[(4S)-4-carboxy-4-(15-carboxypentadecanoylamino)butanoyl]amino]ethoxy]ethoxy]acetyl]amino]hexanoyl], … (peptide)
peptide: H[Aib]EGTFTSDVSK([εLys-AEEA-γGlu-C16 diacid])YLEGQAAK([εLys-AEEA-γGlu-C16 diacid])EFIAWLVQGRG
notes: as for B2
Human GLP-1 receptor [1]
  IC50: < 35 nM
Human GLP-1 receptor [2]
  ratio [(IC50/nM) high HSA]/[(IC50/nM) low HSA]: > 10

B7: N^ε18-[(2S)-2-amino-6-[[(2S)-2-amino-6-[[(4S)-4-carboxy-4-(15-carboxypentadecanoylamino)butanoyl]amino]hexanoyl]amino]hexanoyl], … (peptide)
peptide: H[Aib]EGTFTSDVSK([εLys-εLys-γGlu-C16 diacid])YLEGQAAK([εLys-εLys-γGlu-C16 diacid])EFIAWLVQGRG
notes: as for B2
Human GLP-1 receptor [1]
  IC50: < 35 nM
Human GLP-1 receptor [2]
  ratio [(IC50/nM) high HSA]/[(IC50/nM) low HSA]: > 10

B8: N^ε18-[(2S)-2-amino-6-[[2-[2-[2-(15-carboxypentadecanoylamino)ethoxy]ethoxy]acetyl]amino]hexanoyl], … (peptide)
peptide: H[Aib]EGTFTSDVSK([εLys-AEEA-C16 diacid])YLEGQAAK([εLys-AEEA-C16 diacid])EFIAWLVQGRG
notes: as for B2
Human GLP-1 receptor [1]
  IC50: < 35 nM
Human GLP-1 receptor [2]
  ratio [(IC50/nM) high HSA]/[(IC50/nM) low HSA]: > 10

B9: N^ε18-[2-[2-[2-[[(2S)-2-amino-6-[[2-[2-[2-[[(4S)-4-carboxy-4-[10-(4-carboxyphenoxyl)decanoylamino]butanoyl]amino]ethoxy]ethoxy]acetyl]amino]hexanoyl]amino]ethox … (peptide)
peptide: [Desaminohistidyl]AEGTFTSDVSK([AEEA-εLys-AEEA-γGlu-Decanoyl(10-(4-HOOC-PhO))])YLEEQAVREFIAK([AEEA-εLys-AEEA-γGlu-Decanoyl(10-(4-HOOC-PhO))])LVRGRG
notes: as for B1
Human GLP-1 receptor [1]
  IC50: < 35 nM
Human GLP-1 receptor [2]
  ratio [(IC50/nM) high HSA]/[(IC50/nM) low HSA]: > 10

B10: N^ε18-[(2S)-2-amino-6-[[(4S)-4-carboxy-4-(15-carboxypentadecanoylamino)butanoyl]amino]hexanoyl], … (peptide)
peptide: H[Aib]EGTFTSDVSK([εLys-γGlu-C16 diacid])YLEGQAAK([εLys-γGlu-C16 diacid])EFIAWLVQGRG
notes: as for B2
Human GLP-1 receptor [1]
  IC50: < 35 nM
Human GLP-1 receptor [2]
  ratio [(IC50/nM) high HSA]/[(IC50/nM) low HSA]: > 10
